Test results published in FireProtDB (doi:10.1093/protein/gzt061).

Settings: Rhodococcus erythropolis; pH 7.1; Thermal; Fluorescence; Potassium phosphate 50mM; transition: 2; reversible: no; whole UniProt chain shown

B1: Limonene-1,2-epoxide hydrolase wild type, Q9ZAG3 (protein)
chain: MTSKIEQPRWASKDSAAGAASTPDEKIVLEFMDALTSNDAAKLIEYFAEDTMYQNMPLPPAYGRDAVEQTLAGLFTVMSIDAVETFHIGSSNGLVYTERVDVLRALPTGKSYNLSILGVFQLTEGKITGWRDYFDLREFEEAVDLPLRG
Q: For B1, which Tm is on record?
A: Its Tm is 48.8 °C.
